These results are taken from patent US20230020729A1 (Memorial Sloan Kettering, published 2023).

The chains are these.
T1: human Fc Receptor-Like 5 (FcRL5), full length, expressed on cells (human, UniProt Q96RD9 16-977)
T1 construct: also called CD307e; IRTA2
T1 sequence: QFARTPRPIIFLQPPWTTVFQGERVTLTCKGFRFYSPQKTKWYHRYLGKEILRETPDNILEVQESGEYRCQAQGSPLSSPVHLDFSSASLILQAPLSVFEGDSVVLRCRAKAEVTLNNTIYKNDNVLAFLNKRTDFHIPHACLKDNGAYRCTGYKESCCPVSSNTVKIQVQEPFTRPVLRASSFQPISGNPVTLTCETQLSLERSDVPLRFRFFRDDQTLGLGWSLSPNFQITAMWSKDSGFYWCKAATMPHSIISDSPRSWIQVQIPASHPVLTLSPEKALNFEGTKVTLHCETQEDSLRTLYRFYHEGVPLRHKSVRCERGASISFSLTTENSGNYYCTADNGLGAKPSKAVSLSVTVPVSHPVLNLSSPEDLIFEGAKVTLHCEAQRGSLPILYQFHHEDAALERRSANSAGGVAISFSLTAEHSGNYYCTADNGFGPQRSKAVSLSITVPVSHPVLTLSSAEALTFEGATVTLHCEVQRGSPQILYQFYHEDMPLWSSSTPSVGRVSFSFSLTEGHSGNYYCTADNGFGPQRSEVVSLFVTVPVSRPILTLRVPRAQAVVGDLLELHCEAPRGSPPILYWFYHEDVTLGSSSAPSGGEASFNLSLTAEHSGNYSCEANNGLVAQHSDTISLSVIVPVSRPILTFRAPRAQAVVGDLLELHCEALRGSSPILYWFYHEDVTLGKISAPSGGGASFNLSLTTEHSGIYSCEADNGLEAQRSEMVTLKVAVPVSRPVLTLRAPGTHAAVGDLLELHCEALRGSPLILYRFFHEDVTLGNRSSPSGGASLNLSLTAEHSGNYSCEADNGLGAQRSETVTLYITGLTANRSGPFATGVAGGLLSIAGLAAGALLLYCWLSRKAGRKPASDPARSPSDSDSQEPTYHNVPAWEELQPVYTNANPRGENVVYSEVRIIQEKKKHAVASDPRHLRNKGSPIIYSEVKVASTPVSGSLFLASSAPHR

B1: ET200-112 scFv (scFv)
scFv: QAVLTQPPSASGTPGQRVTISCSGSSSNIGSNTVNWYQQLPGTAPKLLMYSNDQRPSGVPDRFSGSKSGTSASLAISGLQSEDEADYYCAAWDDSLNGYVFAAGTQLTVLSSRGGGGSGGGGSGGGGSLEMAQVQLQQWGAGLLKPSETLSLTCAVYGGSFSGYYWSWIRQPPGKGLEWIGEINHSGSTNYNPSLKSRVTISVDTSKNQFSLKLSSVTAADTAVYYCAREGLDAFDIWGQGTMVTVSS
notes: VL-linker-VH; screened as scFv phage clone
B2: ET200-010 scFv (scFv)
scFv: QSALTQPASVSGSPGQSITISCTGTSSDVGGYNSVSWYQQHPGKAPRLMIYDVSNRPSGVSNRFSGSKSGNTASLTISGLQAEDEADYYCSSYTSSSTPLVFGTGTKVTVLGSRGGGGSGGGGSGGGGSLEMAQVQLVQSGAEVKKPGASVKVSCKASGYTFTSYGISWVRQAPGQGLEWMGWISAYNGNTNYAQKLQGRVTMTTDTSTSTAYMELRSLRSDDTAVYYCARGAVAYHDWGQGTLVTVSS
notes: as for B1
B3: ET200-008 scFv (scFv)
scFv: QSALTQPASVSGSPGQSITISCTGTSSDVGGYNYVSWYQQHPGKAPKLMIYDVSNRPSGVSNRFSGSKSGNTASLTISGLQAEDEADYYCSSYTSSSTSKVFGGGTKLTVLGSRGGGGSGGGGSGGGGSLEMAEVQLVESGGGVVRPGGSLRLSCAASGFTFGDYGMSWVRQAPGKGLEWVSGINWNGGSTGYADSVKGRFTISRDNAKNSLYLQMNSLRAEDTAVYYCARSKYNFHVYYDYWGQGTLVTVSS
notes: as for B1
B4: ET200-121 scFv (scFv)
scFv: QSVLTQPPSVSGAPGQRVTVSCTGSRSNIGAGYDVHWYQQLPGTAPKLLIYGNSNRPPGVPDRFSGSKSGTSASLVITGLQAEDAADYYCQSYDNTVRESPYVFGTGTKVTVLGSRGGGGSGGGGSGGGGSLEMAEVQLVQSGAEVKKPGASVKVSCKVSGYTLTELSMHWVRQAPGKGLEWMGGFDPEDGETIYAQKFQGRVTMTEDTSTDTAYMELSSLRSEDTAVYYCATESNLVSRHYYYYGMDVWGQGTTVTVSS
notes: as for B1
B5: ET200-116 scFv (scFv)
scFv: QPVLTQPPSVSVSPGQTAAIPCSGDKLGDKFASWYQQKPGQSPVLVIYQDTKRPSGIPERFSGSNSGNTATLTISGTQAMDEADYYCQTWASGIVVFGGGTKLTVLGSRGGGGSGGGGSGGGGSLEMAQVQLQQSGPGLVKPSQTLSLTCAISGDSVSSNSAAWNWIRQSPSRGLEWLGRTYYRSKWYNDYAVSVKSRITINPDTSKNQFSLQLNSVTPEDTAVYYCARERSGWKGFDYWGQGTLVTVSS
notes: as for B1
B6: ET200-113 scFv (scFv)
scFv: QSVVTQPPSVSAAPGQKVTISCSGSSSNIGNNYVSWYQQLPGTAPKLLIYDNNKRPSGIPDRFSGSKSGTSATLGITGLQTGDEADYYCGTWDSSLSAAYVFGTGTKVTVLGSRGGGGSGGGGSGGGGSLEMAQVQLVQSGAEVKKPGASVKVSCKASGYSFTSYTISWVRQAPGQGLEWMGWVSTYNGLRNYAQNLQGRVTMTTDTLTTTAYMELRSLRSDDTAVYYCVREGSPDYGDFAAFDYWGQGTLVTVSS
notes: as for B1
B7: ET200-005 scFv (scFv)
scFv: QPVLTQPPSVSVVPGKTARITCGGKNIGSKSVHWYQQKPGQAPVVVIHYDSDRPSGIPERFSGSNSGNTATLTISRVEAGDEADYYCQVWDSSSDHPYVFGTGTKVTVLGSRGGGGSGGGGSGGGGSLEMAQVQLVQSGAEVKKPGASVKVSCKASGYTFTNYGISWVRQAPGQGLEWMGWISAYNGNTNYAHKLQGRVTMTTDTSTSTANMELRSLRPDDTAVYYCARSYFGSHDYWGQGTLVTVSS
notes: as for B1
B8: ET200-009 scFv (scFv)
scFv: QSVLTQPPSASGTPGQTVTISCSGSNSNIGSNYVYWYQQLPGTAPKLLIYRNNQRPSGVPDRFSGSKSGTSASLAISGLRSEDEADYYCAAWDDSLSAYVFGTGTKVTVLGSRGGGGSGGGGSGGGGSLEMAQVQLVQSGAEVKKPGASVKVSCKASGYTFTSYGISWVRQAPGQGLEWMGWISAYNGNTNYAQKLQGRVTMTTDTSTSTAYMELRSLRSDDTAVYYCARSSGNMVSWKDMWGQGTLVTVSS
notes: as for B1
B9: ET200-115 scFv (scFv)
scFv: QSVLTQPPSVSGAPGQRVTISCTGSSSNIGARYDVHWYQQLPGTAPRLLISANYDRPSGVPDRFSGSKSGTSASLAITGLQAEDEADYYCQSYDSSVSAWVFGGGTKVTVLGSRGGGGSGGGGSGGGGSLEMAEVQLVQSGAEVKEPGASVRISCQASGYNFISYYMHWVRQAPGQGLEWMGTINPGSGETDYSQKLQGRVTMTRDPSTGTFDMGLSSLTSGDTAVYYCATGLIRGASDAFNIWGRGTMVTVSS
notes: as for B1
B10: ET200-125 scFv (scFv)
scFv: NFMLTQPHAVSESPGKTVTISCTRSSGSIASNYVQWYQQRPGSSPRTVIYEDNQRPSGVPGRFSGSIDSSSNSASLTISGLKTEDEADYYCQSYDSTSVLFGGGTKLTVLGSRGGGGSGGGGSGGGGSLEMAEVQLVQSGAEVKKPGSSVKVSCKASGGTFSSNSLSWVRQAPGQGLEWMGRIFPILGITNYAQKFQGRVTITADKSTSTAYMELSSLRSEDTAVYYCARGNYQWYDAFDIWGQGTMVTVSS
notes: as for B1
B11: ET200-110 scFv (scFv)
scFv: QSVLTQPPSASGTPGQRVTISCSGSSSNIGTNGVNWFQQFPGTAPKLLIYTNDQRPSGVPDRFSGSKSGTSASLAISGLQSADEADYYCAVWDHSLNGPVFGGGTKLTVLGSRGGGGSGGGGSGGGGSLEMAQVQLVQSGAEVKKPGSSVKVSCKASGGTFSSYAISWVRQAPGQGLEWMGGIIPIFGTANYAQKFQGRVTITADESTSTAYMELSSLRSEDTAVYYCARGAGFDAFDIWGQGTMVTVSS
notes: as for B1
B12: ET200-109 scFv (scFv)
scFv: LPVLTQPPSASATPGQRVTISCSGTTSNIGSNTVHWYQQLPGTAPKLLIYNNNQRPSGVPDRFSGSKSGTSASLAISGLRSEDEATYSCATWDDSLSGVVFGGGTKLTVLGSRGGGGSGGGGSGGGGSLEMAEVQLVQSGAEVKKPGSSVKVSCKASGGTFSSYAISWVRQAPGQGLEWMGGIIPIFGTANYAQKFQGRVTITADESTSTAYMELSSLRSEDTAVYYCARDPAYGDYEYDAFDIWGQGTMVTVSS
notes: as for B1
B13: ET200-123 scFv (scFv)
scFv: QAVLTQPPSASGTPGQRVTISCSGSSSNIGSNTVNWYQQLPGTAPKLLMYNNDQRPSGVPDRFSGSKSGTSASLAISGLQSEDEADYYCAAWDDSLNGYVFGPGTKVTVLGSRGGGGSGGGGSGGGGSLEMAQVQLVESGAEVKKPGASVKVSCKASGYTFTSYGISWVRQAPGQGLEWMGWISAYNGNTNYAQKLQGRVTMTTDTSTSTAYMELRSLRSDDTAVYYCARDLSRGANPHYYYYYGMDVWGQGTTVTVSS
notes: as for B1
B14: ET200-118 scFv (scFv)
scFv: QAVLTQPASVSGSPGQSITISCTGTSSDVGGYNYVSWYQQHPGKAPKLMIYEVSNRPSGVSNRFSGSKSGNTASLTISGLQAEDEADYYCSSYTSSSTPYVFGAGTKVTVLGSRGGGGSGGGGSGGGGSLEMAEVQLVESGGGLVQPGRSLRLSCAASGFTFDDYAMHWVRQAPGKGLEWVSGISWNSGSIGYADSVKGRFTISRDNAKNSLYLQMNSLRAEDTALYYCAKARWTAVASDHHFDYWGQGTLVTVSS
notes: as for B1
B15: ET200-124 scFv (scFv)
scFv: SYVLTQPPSVSVAPGKTARISCGGNDIGSKSVFWYQQRPGQAPVLVVYDDSDRPSGLPERFSGFNSGNTATLTISRVEAGDEADYYCQVWDSSSDHYVFGTGTKVTVLGSRGGGGSGGGGSGGGGSLEMAQVQLVESGGGLVQPGRSLRLSCAASGFTFDDYAMHWVRQAPGKGLEWVSGISWNSGSIGYADSVKGRFTISRDNAKNSLYLQMNSLRAEDTALYYCAKDITYGSGSYGAFDIWGQGTMVTVSS
notes: as for B1
B16: ET200-108 scFv (scFv)
scFv: QSVLTQPPSVSAPPGQKVTISCSGSSSNIGNNYVSWYQQFPGTAPKLLIYDNNKRPSGISDRFSGSKSGTSATLGIAGLQTGDEADYYCGTWDTSLSGFYVFGSGTKVTVLGSRGGGGSGGGGSGGGGSLEMAEVQLVQSGAEVKKPGASVKVSCKASGYTFTSYTISWVRQAPGQGLEWMGWISTYNGLTNYAQNLQGRVTMTTDTFTTTAYMELRSLRSDDTAVYYCVREGSPDYGDFASFDYWGQGTLVTVSS
notes: as for B1

This experiment has as its target T1, human Fc Receptor-Like 5 (FcRL5), full …. Description: scFv phage: ELISA on His-tag FcRL5, flow cytometry on FcRL5-overexpressing 3T3 and Raji cells. A general note: An ELISA detects its analyte on a solid surface through an enzyme-linked reagent.
As for B1, the binding result was “binds”. For B2, the binding result is on record as “binds”. Under B3 stands “binds”. Under B4 stands “binds”; under B5, “binds”; under B6, “binds”.

On to B7, for which the binding result was “binds”. As to B8, the binding result is listed as “binds”. For B9, the binding result is given as “binds”.

B10: the binding result was “binds”. Turning to B11, the binding result was “binds”. Consider B12, for which the binding result is “binds”.

As to B13, the binding result is “binds”. Turning to B14, the binding result is given as “binds”. For the molecule B15, the binding result is on record as “binds”. Under B16 stands “binds”.
